Values belong to the substance of their own block, whether it stands above or below them.
Columns and labels:
[1] = target: phosphorylated Smad2 (His-tagged, full length, from Sf9 cells co-infected with Alk5 T204D virus) (UniProt Q15796); assay: HTRF competition against 500 nM biotinylated FAST peptide
[2] = target: phosphorylated Smad2 (His-tagged, full length, from Sf9 cells co-infected with Alk5 T204D virus) (UniProt Q15796); assay: HTRF, biotin-FAST binding to Smad2-P, no inhibitor
[3] = target: T1, Phosphorylated Smad2/4 Complex (Homo sapiens, UniProt Q15796); assay: microplate solid-phase assay; Smad2P4 0.50 ug/well; biotinylated GST-CBP 1:2000, duplicate well
[4] = target: T1, Phosphorylated Smad2/4 Complex; assay: microplate solid-phase assay; Smad2P4 0.25 ug/well; biotinylated GST-CBP 1:2000, duplicate well
[5] = target: T1, Phosphorylated Smad2/4 Complex; assay: microplate solid-phase assay; Smad2P4 0.25 ug/well; biotinylated GST-CBP 1:500, duplicate well
[6] = target: unphosphorylated Smad2 (His-tagged, full length) (UniProt Q15796); assay: microplate solid-phase assay; Smad2 0.25 ug/well; biotinylated GST-CBP 1:1000
[7] = target: T1, Phosphorylated Smad2/4 Complex; assay: microplate solid-phase assay; Smad2P4 0.125 ug/well; biotinylated GST-CBP 1:2000
[8] = target: T1, Phosphorylated Smad2/4 Complex; assay: microplate solid-phase assay; Smad2P4 0.25 ug/well; biotinylated GST-CBP 1:1000, duplicate well
[9] = target: T1, Phosphorylated Smad2/4 Complex; assay: microplate solid-phase assay, biotinylated GST-CBP, streptavidin-AP
[10] = target: T1, Phosphorylated Smad2/4 Complex; assay: microplate solid-phase assay; Smad2P4 0.50 ug/well; biotinylated GST-CBP 1:500, duplicate well
[11] = target: unphosphorylated Smad2 (His-tagged, full length) (UniProt Q15796); assay: microplate solid-phase assay; Smad2 0.50 ug/well; biotinylated GST-CBP 1:1000, duplicate well
[12] = target: unphosphorylated Smad2 (His-tagged, full length) (UniProt Q15796); assay: microplate solid-phase assay; Smad2 0.25 ug/well; biotinylated GST-CBP 1:500, duplicate well
[13] = target: T1, Phosphorylated Smad2/4 Complex; assay: microplate solid-phase assay; Smad2P4 0.125 ug/well; biotinylated GST-CBP 1:2000, duplicate well
[14] = target: T1, Phosphorylated Smad2/4 Complex; assay: microplate solid-phase assay; Smad2P4 0.25 ug/well; biotinylated GST-CBP 1:2000
[15] = target: unphosphorylated Smad2 (His-tagged, full length) (UniProt Q15796); assay: microplate solid-phase assay; Smad2 0.50 ug/well; biotinylated GST-CBP 1:500
[16] = target: T1, Phosphorylated Smad2/4 Complex; assay: microplate solid-phase assay; Smad2P4 0.125 ug/well; biotinylated GST-CBP 1:500
[17] = target: T1, Phosphorylated Smad2/4 Complex; assay: microplate solid-phase assay; Smad2P4 0.50 ug/well; biotinylated GST-CBP 1:2000
[18] = target: unphosphorylated Smad2 (His-tagged, full length) (UniProt Q15796); assay: microplate solid-phase assay; Smad2 0.25 ug/well; biotinylated GST-CBP 1:1000, duplicate well
[19] = target: unphosphorylated Smad2 (His-tagged, full length) (UniProt Q15796); assay: microplate solid-phase assay; Smad2 0.50 ug/well; biotinylated GST-CBP 1:2000
[20] = target: T1, Phosphorylated Smad2/4 Complex; assay: microplate solid-phase assay; Smad2P4 0.25 ug/well; biotinylated GST-CBP 1:500
[21] = target: unphosphorylated Smad2 (His-tagged, full length) (UniProt Q15796); assay: microplate solid-phase assay; Smad2 0.50 ug/well; biotinylated GST-CBP 1:1000
[22] = target: unphosphorylated Smad2 (His-tagged, full length) (UniProt Q15796); assay: microplate solid-phase assay; Smad2 0.25 ug/well; biotinylated GST-CBP 1:2000, duplicate well
[23] = target: unphosphorylated Smad2 (His-tagged, full length) (UniProt Q15796); assay: microplate solid-phase assay; Smad2 0.50 ug/well; biotinylated GST-CBP 1:2000, duplicate well
[24] = target: unphosphorylated Smad2 (His-tagged, full length) (UniProt Q15796); assay: microplate solid-phase assay; Smad2 0.50 ug/well; biotinylated GST-CBP 1:500, duplicate well
[25] = target: T1, Phosphorylated Smad2/4 Complex; assay: microplate solid-phase assay; Smad2P4 0.50 ug/well; biotinylated GST-CBP 1:1000
[26] = target: unphosphorylated Smad2 (His-tagged, full length) (UniProt Q15796); assay: microplate solid-phase assay; Smad2 0.25 ug/well; biotinylated GST-CBP 1:2000
[27] = target: T1, Phosphorylated Smad2/4 Complex; assay: microplate solid-phase assay; Smad2P4 0.50 ug/well; biotinylated GST-CBP 1:500
[28] = target: unphosphorylated Smad2 (His-tagged, full length) (UniProt Q15796); assay: microplate solid-phase assay; Smad2 0.25 ug/well; biotinylated GST-CBP 1:500
[29] = target: T1, Phosphorylated Smad2/4 Complex; assay: microplate solid-phase assay; Smad2P4 0.50 ug/well; biotinylated GST-CBP 1:1000, duplicate well
[30] = target: T1, Phosphorylated Smad2/4 Complex; assay: microplate solid-phase assay; Smad2P4 0.25 ug/well; biotinylated GST-CBP 1:1000
[31] = target: T1, Phosphorylated Smad2/4 Complex; assay: microplate solid-phase assay; Smad2P4 0.125 ug/well; biotinylated GST-CBP 1:500, duplicate well
[32] = target: T1, Phosphorylated Smad2/4 Complex; assay: microplate solid-phase assay; Smad2P4 0.125 ug/well; biotinylated GST-CBP 1:1000
[33] = target: T1, Phosphorylated Smad2/4 Complex; assay: microplate solid-phase assay; Smad2P4 0.125 ug/well; biotinylated GST-CBP 1:1000, duplicate well

IC50 [1]: 250 nM
Substance: GST-trx-FAST fusion protein (FAST SIM peptide aptamer on thioredoxin scaffold) (from UniProt O75593 327-350) (designed binder)

Average Normalized Counts [2]: 1880 counts
Substance: biotinylated FAST peptide (24 mer, Smad interaction motif of human FAST) (from UniProt O75593 327-350)

relative light units (RLU) [3]: 285000 RLU
relative light units (RLU) [4]: 162000 RLU
relative light units (RLU) [5]: 191000 RLU
relative light units (RLU) [6]: 6680 RLU
relative light units (RLU) [7]: 82200 RLU
relative light units (RLU) [8]: 182000 RLU
fold more CBP bound than by an equivalent amount of unphosphorylated Smad [9]: > 30 fold
relative light units (RLU) [10]: 236000 RLU
relative light units (RLU) [11]: 23500 RLU
relative light units (RLU) [12]: 8900 RLU
relative light units (RLU) [13]: 85100 RLU
relative light units (RLU) [14]: 176000 RLU
relative light units (RLU) [15]: 26600 RLU
relative light units (RLU) [16]: 72000 RLU
relative light units (RLU) [17]: 303000 RLU
relative light units (RLU) [18]: 7830 RLU
relative light units (RLU) [19]: 11300 RLU
relative light units (RLU) [20]: 204000 RLU
relative light units (RLU) [21]: 23000 RLU
relative light units (RLU) [22]: 4340 RLU
relative light units (RLU) [23]: 11000 RLU
relative light units (RLU) [24]: 26300 RLU
relative light units (RLU) [25]: 306000 RLU
relative light units (RLU) [26]: 6600 RLU
relative light units (RLU) [27]: 358000 RLU
relative light units (RLU) [28]: 11100 RLU
relative light units (RLU) [29]: 323000 RLU
relative light units (RLU) [30]: 181000 RLU
relative light units (RLU) [31]: 74300 RLU
relative light units (RLU) [32]: 82900 RLU
relative light units (RLU) [33]: 82300 RLU
Substance: biotinylated GST-CBP protein (from UniProt P08515 1-218)
